In patent US20030171255:
Read-outs that look alike come from different tables or passages of the source.

How the values were obtained:
[1] = tested on: recombinant DARPP-32 phosphorylated in vitro at Ser137 by CK1
[2] = tested on: recombinant DARPP-32
[3] = target: T1, recombinant DARPP-32 phosphorylated in vitro at Ser137 by CK1; remark: listed apart in the source
T1 sequence (Q9UD71 1-204, species assumed, looked up): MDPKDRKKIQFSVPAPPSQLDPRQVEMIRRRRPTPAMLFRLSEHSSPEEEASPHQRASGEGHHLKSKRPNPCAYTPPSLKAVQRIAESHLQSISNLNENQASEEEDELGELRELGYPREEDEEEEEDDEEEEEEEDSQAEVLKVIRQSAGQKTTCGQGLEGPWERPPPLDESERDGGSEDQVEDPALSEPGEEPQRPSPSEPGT

recombinant His-tagged PP2Cb (protein phosphatase 2C beta isoform) cloned from rat striatum
KM [1]: 25.3 µM | Vmax, µmol mg^-1 min^-1 (µmol mg^-1 min^-1) [1]: 0.99 | dephosphorylation of phospho-Ser137-DARPP-32 (release of 32P) [1]: the PP2Ca, b and g demonstrated similar initial rates of dephosphorylation | kcat [1]: 0.78 s⁻¹ | kcat/KM [1]: 31000 M⁻¹ s⁻¹

CK1 (casein kinase 1) obtained from New England BioLabs
stoichiometry of in vitro phosphorylation at Ser137 [2]: stoichiometry of 1 mol/mol

recombinant His-tagged PP2Cd (protein phosphatase 2C delta isoform) cloned from rat striatum
dephosphorylation of phospho-Ser137-DARPP-32 (release of 32P) [1]: PP2Cd did not dephosphorylate phospho-Ser137-DARPP-32

B1: recombinant His-tagged PP2Ca (protein phosphatase 2C alpha isoform) cloned from rat striatum (protein)
chain: MGAFLDKPKMEKHNAQGQGNGLRYGLSSMQGWRVEMEDAHTAVIGLPSGLETWSFFAVYDGHAGSQVAKYCCEHLLDHITNNQDFKGSAGAPSVENVKNGIRTGFLEIDEHMRVMSEKKHGADRSGSTAVGVLISPQHTYFINCGDSRGLLCRNRKVHFFTQDHKPSNPLEKERIQNAGGSVMIQRVNGSLAVSRALGDFDYKCVHGKGPTEQLVSPEPEVHDIERSEEDDQFIILACDGIWDVMGNEELCDFVRSRLEVTDDLEKVCNEVVDTCLYKGSRDNMSVILICFPNAPKVSAEAVKKEAELDKYLENRVEEIIKKQGEGVPDLVHVMRTLASENIPSLPPGGELASKRNVIEAVYNRLNPYKNDDTDSASTDDMW
KM [3]: 13.1 µM | Vmax, µmol mg^-1 min^-1 (µmol mg^-1 min^-1) [3]: 0.39 | dephosphorylation of phospho-Ser137-DARPP-32 (release of 32P) [3]: the PP2Ca, b and g demonstrated similar initial rates of dephosphorylation | kcat [3]: 0.31 s⁻¹ | kcat/KM [3]: 23000 M⁻¹ s⁻¹

B2: recombinant His-tagged PP2Cg (protein phosphatase 2C gamma isoform) cloned from rat striatum (protein)
chain: MGAYLSQPNTVKCSGDGVGAPRLPLPYGFSAMQGWRVSMEDAHNCIPELDNETAMFSVYDGHGGEEVALYCAKYLPDIIKDQKAYKEGKLQKALQDAFLAIDAKLTTDEVIKELAQIAGRPTEDEDDKEKVADEDDVDNEEAALLHEEATMTIEELLTRYGQNCQKGPPHTKSGTGIGDEPEPQGLNGEAGPEDPSRETPSQENGPTAKGHTGPSSNSDHGTEAGQIGEPGTATGEAGPSCSSASDKLPRVAKSKFFEDSEDESDEVEEEEDDSEECSEDEDGYSSEEAENEEDEDDTEEAEEDDDEEMMVPGMEGKEEPGSDSGTTAVVALIRGKQLIVANAGDSRCVVSEAGKALDMSYDHKPEDEVELARIKNAGGKVTMDGRVNGGLNLSRAIGDHFYKRNKNLPPQEQMISALPDIKVLTLTDDHEFMVIACDGIWNVMSSQEVVDFIQSKISQRDENGELRLLSSIVEELLDQCLAPDTSGDGTGCDNMTCIIICFKPRNTVELQPESGKRKLEEALSTEGAEENGNSDKKKAKRD
KM [3]: 7 µM | Vmax, µmol mg^-1 min^-1 (µmol mg^-1 min^-1) [3]: 0.31 | dephosphorylation of phospho-Ser137-DARPP-32 (release of 32P) [3]: the PP2Ca, b and g demonstrated similar initial rates of dephosphorylation | kcat [3]: 0.32 s⁻¹ | kcat/KM [3]: 45000 M⁻¹ s⁻¹
